Laboratory results from patent EP3583122A1 (dated 2019).
Changes are numbered by the printed parent chain. Numbers in names are those of the source.

B1: mAb PE-87 (antibody, V domains shown)
VH: QVQLVQSGVTLVQPGGSLRVSCAASGFTFSSYAMSWVRQAPGKGLEWVSAISGLGGSTYYADSVKGRFTISRDNSKNTLYLQMNSLRAEDTAVYYCAKDHRVWAAGYHFDYWGQGALVTVSS
VL: DIVLTQSPSTLSASVGDRVTITCRASQSISSWLAWYQQKPGEAPKLLISDASSLESGVPSRFSGSGSGTEFTLTISSLQPDDFATYYCQQYYSSPTFGGGTKVEIK
B2: PE-87 H100A (antibody, V domains shown)
VH: B1 VH with H100A
VL: B1 VL
B3: PE-87 W103A (antibody, V domains shown)
VH: B1 VH with W103A
VL: B1 VL
B4: PE-87 Y111A (antibody, V domains shown)
VH: B1 VH with Y111A
VL: B1 VL
B5: PE-87 D110A (antibody, V domains shown)
VH: B1 VH with D110A
VL: B1 VL
B6: PE-87 Y107A (antibody, V domains shown)
VH: B1 VH with Y107A
VL: B1 VL
B7: PE-87 H108A (antibody, V domains shown)
VH: B1 VH with H108A
VL: B1 VL
B8: PE-87 D99A (antibody, V domains shown)
VH: B1 VH with D99A
VL: B1 VL
B9: PE-87 G106A (antibody, V domains shown)
VH: B1 VH with G106A
VL: B1 VL
B10: PE-87 F109A (antibody, V domains shown)
VH: B1 VH with F109A
VL: B1 VL
B11: PE-87 R101A (antibody, V domains shown)
VH: B1 VH with R101A
VL: B1 VL
B12: PE-87 V102A (antibody, V domains shown)
VH: B1 VH with V102A
VL: B1 VL

Each binder was assayed against EBOV GPCL (cleaved soluble EBOV GP) (Ebola virus (EBOV), UniProt Q05320 33-650) (assay: BLI (OctetRed), IgG on anti-human Fc sensors, GPCL in solution, 1:1 fit).

How did the Kd turn out when B1 was run?
Its Kd is under 0.001 nM.

Each binder was assayed against T1, TAFV GP on VSV pseudotype particles (Tai Forest virus (TAFV), UniProt Q66810 33-676) (assay: cell-based or functional assay).
T1 sequence: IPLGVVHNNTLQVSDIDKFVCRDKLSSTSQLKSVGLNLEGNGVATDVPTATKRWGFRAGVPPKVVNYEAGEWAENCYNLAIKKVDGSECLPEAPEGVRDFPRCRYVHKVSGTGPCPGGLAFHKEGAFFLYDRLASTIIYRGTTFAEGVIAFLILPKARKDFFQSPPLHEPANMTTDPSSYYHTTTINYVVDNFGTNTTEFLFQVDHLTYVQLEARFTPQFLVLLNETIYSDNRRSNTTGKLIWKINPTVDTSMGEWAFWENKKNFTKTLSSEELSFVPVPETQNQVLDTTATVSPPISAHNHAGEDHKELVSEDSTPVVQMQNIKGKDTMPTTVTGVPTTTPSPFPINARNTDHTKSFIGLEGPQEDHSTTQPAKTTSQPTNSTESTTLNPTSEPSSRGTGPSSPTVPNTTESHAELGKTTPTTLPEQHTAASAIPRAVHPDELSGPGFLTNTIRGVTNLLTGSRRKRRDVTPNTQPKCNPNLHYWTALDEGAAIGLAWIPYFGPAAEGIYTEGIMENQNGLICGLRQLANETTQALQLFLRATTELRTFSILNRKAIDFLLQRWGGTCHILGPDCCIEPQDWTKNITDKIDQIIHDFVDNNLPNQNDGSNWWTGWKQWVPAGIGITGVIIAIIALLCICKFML

For B2, which “IC50, half-maximal neutralization of viral infectivity (rVSV-GP)” value (from here on “IC50, half-maximal neutralization”) is on record?
The value was 0.8 nM.

For B3, which “IC50, half-maximal neutralization” value is on record?
The value was over 150 nM.

How did the “IC50, half-maximal neutralization” value turn out when B4 was run?
Its value is 1.1 nM.

For B5, which “IC50, half-maximal neutralization” value is on record?
The value was 2.1 nM.

For B6, which “IC50, half-maximal neutralization” value is on record?
Its value is 0.8 nM.

B7 was tested. Which “IC50, half-maximal neutralization” value did it give?
The value was 2.2 nM.

B8 was tested. Which “IC50, half-maximal neutralization” value did it give?
Its value is over 350 nM.

B9 was tested. Which “IC50, half-maximal neutralization” value did it give?
Its value is 0.8 nM.

With B10 as the binder, how does the “IC50, half-maximal neutralization” value read?
Its value is 2.8 nM.

Which “IC50, half-maximal neutralization” value does the source give for B11 here?
Its value is 1.9 nM.

B12 was tested. Which “IC50, half-maximal neutralization” value did it give?
The value was 1 nM.

Each binder was assayed against T2, EBOV GP on rVSV particles (Ebola virus (EBOV), UniProt Q05320 33-676) (assay: cell-based or functional assay).
T2 sequence: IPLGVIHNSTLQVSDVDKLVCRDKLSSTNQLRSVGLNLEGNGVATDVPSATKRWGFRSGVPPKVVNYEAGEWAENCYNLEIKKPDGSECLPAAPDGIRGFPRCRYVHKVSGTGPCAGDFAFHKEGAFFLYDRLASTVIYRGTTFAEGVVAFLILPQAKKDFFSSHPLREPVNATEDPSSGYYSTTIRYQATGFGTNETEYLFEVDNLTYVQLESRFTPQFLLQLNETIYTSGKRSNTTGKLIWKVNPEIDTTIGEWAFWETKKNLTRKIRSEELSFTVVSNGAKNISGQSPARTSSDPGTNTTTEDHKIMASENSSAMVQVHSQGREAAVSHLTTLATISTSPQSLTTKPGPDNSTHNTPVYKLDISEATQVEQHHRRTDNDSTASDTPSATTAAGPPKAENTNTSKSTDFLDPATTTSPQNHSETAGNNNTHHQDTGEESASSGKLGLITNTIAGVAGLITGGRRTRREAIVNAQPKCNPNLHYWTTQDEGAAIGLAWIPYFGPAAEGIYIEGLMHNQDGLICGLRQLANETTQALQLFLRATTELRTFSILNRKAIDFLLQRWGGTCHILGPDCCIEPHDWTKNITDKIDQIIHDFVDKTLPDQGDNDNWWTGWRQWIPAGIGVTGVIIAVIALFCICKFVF

With B2 as the binder, how does the “IC50, half-maximal neutralization” value read?
The value was 1 nM.

For B4, which “IC50, half-maximal neutralization” value is on record?
The value was 0.8 nM.

With B5 as the binder, how does the “IC50, half-maximal neutralization” value read?
Its value is 2 nM.

Which “IC50, half-maximal neutralization” value does the source give for B6 here?
Its value is 3 nM.

How did the “IC50, half-maximal neutralization” value turn out when B7 was run?
Its value is 3.2 nM.

Which “IC50, half-maximal neutralization” value does the source give for B8 here?
Its value is over 500 nM.

B9 was tested. Which “IC50, half-maximal neutralization” value did it give?
Its value is 0.8 nM.

With B10 as the binder, how does the “IC50, half-maximal neutralization” value read?
Its value is 4.2 nM.

How did the “IC50, half-maximal neutralization” value turn out when B11 was run?
Its value is 3.2 nM.

With B12 as the binder, how does the “IC50, half-maximal neutralization” value read?
The value was 0.6 nM.

Each binder was assayed against T3, RESTV GP on rVSV particles (Reston virus (RESTV), UniProt Q66799 34-677) (assay: cell-based or functional assay).
T3 sequence: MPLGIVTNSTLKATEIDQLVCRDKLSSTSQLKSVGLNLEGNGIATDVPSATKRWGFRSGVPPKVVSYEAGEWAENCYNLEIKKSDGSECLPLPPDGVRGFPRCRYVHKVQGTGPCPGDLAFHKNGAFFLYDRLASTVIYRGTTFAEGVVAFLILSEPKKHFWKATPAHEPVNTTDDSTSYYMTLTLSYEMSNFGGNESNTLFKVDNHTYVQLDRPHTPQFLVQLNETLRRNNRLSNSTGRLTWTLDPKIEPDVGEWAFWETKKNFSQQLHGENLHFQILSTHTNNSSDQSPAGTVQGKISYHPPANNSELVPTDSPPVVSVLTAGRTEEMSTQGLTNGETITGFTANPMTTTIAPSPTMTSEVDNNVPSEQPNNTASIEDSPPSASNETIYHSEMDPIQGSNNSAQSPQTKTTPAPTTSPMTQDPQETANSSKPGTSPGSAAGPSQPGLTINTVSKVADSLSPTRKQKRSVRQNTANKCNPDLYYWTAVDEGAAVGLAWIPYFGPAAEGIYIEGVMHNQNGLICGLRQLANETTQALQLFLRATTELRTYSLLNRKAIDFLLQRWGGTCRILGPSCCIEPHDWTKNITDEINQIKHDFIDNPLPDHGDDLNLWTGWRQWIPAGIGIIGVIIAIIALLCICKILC

Which “IC50, half-maximal neutralization” value does the source give for B2 here?
Its value is 0.2 nM.

B4 was tested. Which “IC50, half-maximal neutralization” value did it give?
The value was 0.1 nM.

With B5 as the binder, how does the “IC50, half-maximal neutralization” value read?
Its value is 0.4 nM.

With B6 as the binder, how does the “IC50, half-maximal neutralization” value read?
The value was 1.3 nM.

How did the “IC50, half-maximal neutralization” value turn out when B7 was run?
The value was 0.5 nM.

Which “IC50, half-maximal neutralization” value does the source give for B9 here?
Its value is 0.2 nM.

How did the “IC50, half-maximal neutralization” value turn out when B10 was run?
The value was 0.4 nM.

Which “IC50, half-maximal neutralization” value does the source give for B11 here?
The value was 0.2 nM.

How did the “IC50, half-maximal neutralization” value turn out when B12 was run?
Its value is 0.2 nM.

These binders were tested against BDBV GP on rVSV particles (Bundibugyo virus (BDBV)) (assay: cell-based or functional assay).

B2 was tested. Which “IC50, half-maximal neutralization” value did it give?
The value was 0.4 nM.

For B3, which “IC50, half-maximal neutralization” value is on record?
Its value is over 200 nM.

How did the “IC50, half-maximal neutralization” value turn out when B4 was run?
The value was 0.4 nM.

B5 was tested. Which “IC50, half-maximal neutralization” value did it give?
The value was 0.9 nM.

Which “IC50, half-maximal neutralization” value does the source give for B6 here?
Its value is 0.8 nM.

B7 was tested. Which “IC50, half-maximal neutralization” value did it give?
Its value is 0.6 nM.

Which “IC50, half-maximal neutralization” value does the source give for B9 here?
The value was 0.4 nM.

For B10, which “IC50, half-maximal neutralization” value is on record?
The value was 0.3 nM.

B11 was tested. Which “IC50, half-maximal neutralization” value did it give?
The value was 0.4 nM.

B12 was tested. Which “IC50, half-maximal neutralization” value did it give?
Its value is 0.2 nM.

These binders were tested against T4, SUDV GP on rVSV particles (Sudan virus (SUDV), UniProt Q66814 33-676) (assay: cell-based or functional assay).
T4 sequence: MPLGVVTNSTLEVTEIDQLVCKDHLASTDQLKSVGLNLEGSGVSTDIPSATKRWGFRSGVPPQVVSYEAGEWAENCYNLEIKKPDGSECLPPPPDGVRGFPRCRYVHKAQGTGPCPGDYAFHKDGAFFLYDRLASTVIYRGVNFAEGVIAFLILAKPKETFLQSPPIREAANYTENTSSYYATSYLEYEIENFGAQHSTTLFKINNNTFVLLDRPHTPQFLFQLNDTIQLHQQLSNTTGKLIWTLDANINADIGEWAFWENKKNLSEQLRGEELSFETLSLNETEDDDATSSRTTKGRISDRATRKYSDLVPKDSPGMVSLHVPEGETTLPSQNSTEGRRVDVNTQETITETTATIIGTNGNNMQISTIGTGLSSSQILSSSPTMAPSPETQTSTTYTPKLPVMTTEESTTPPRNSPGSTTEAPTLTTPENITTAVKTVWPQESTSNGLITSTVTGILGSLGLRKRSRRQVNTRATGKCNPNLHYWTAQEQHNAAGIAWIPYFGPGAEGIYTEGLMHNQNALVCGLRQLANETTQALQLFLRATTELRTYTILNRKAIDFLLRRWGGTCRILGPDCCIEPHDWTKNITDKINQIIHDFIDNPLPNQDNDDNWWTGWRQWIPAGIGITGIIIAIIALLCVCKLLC

For B2, which “IC50, half-maximal neutralization” value is on record?
The value was 1 nM.

With B4 as the binder, how does the “IC50, half-maximal neutralization” value read?
Its value is 0.8 nM.

How did the “IC50, half-maximal neutralization” value turn out when B5 was run?
The value was 1.5 nM.

For B6, which “IC50, half-maximal neutralization” value is on record?
Its value is over 350 nM.

Which “IC50, half-maximal neutralization” value does the source give for B7 here?
Its value is 2.1 nM.

For B9, which “IC50, half-maximal neutralization” value is on record?
Its value is 0.9 nM.

Which “IC50, half-maximal neutralization” value does the source give for B10 here?
The value was 2.1 nM.

B11 was tested. Which “IC50, half-maximal neutralization” value did it give?
Its value is 1.5 nM.

With B12 as the binder, how does the “IC50, half-maximal neutralization” value read?
The value was 1.1 nM.
